Measurements: patent US20070117770, “Human ribosomal DNA (rDNA) and ribosomal RNA (rRNA) nucleic acids and uses thereof” (Cylene Pharmaceuticals, Inc., published 2007)

Tests used:
[1] = molecular target: T1, Nucleolin (MBP fusion, lacking N-terminal acidic stretches domain) (Homo sapiens, UniProt P19338 P19338:284-710); assay: filter; Bmax 47%; 60 mM KCl, 1 mM MgCl2; details: label: 32P
Method: (§1) The assay also was conducted in a filter-binding format. In such forms of the assay, 0.2 nM of ³²P-labeled quadruplexes were incubated in 50 uL of the binding buffer (12.5 mM Tris-HCl, pH 7.6, 60 mM KCl, 1 mM MgCl2, 0.1 mM EDTA, 5% glycerol, 0.1 mg/mL BSA) for 10 min at 85 C and then for 10 min on ice and mixed with another 50 uL of binding buffer containing increasing amounts of recombinant protein Nucleolin. The protein-quadruplex mixtures were incubated for 30 min at ambient temperature and filtered through mixed cellulose ester membrane filters (Millipore) with gentle suction. The filters were washed twice with […] of binding buffer, dried and OptiPhase ‘SuperMix’ scintillation cocktail (Perkin Elmer) was added to the wells. Radioactivity was assayed with MicroBeta scintillation counter (Perkin Elmer). Binding curves were constructed and apparent Kd's and Bmax's for the complexes were calculated using the GraphPad Prizm software program (GraphPad Software). […]

[2] = molecular target: T1, Nucleolin (MBP fusion, lacking …); assay: filter; Bmax 49%; 60 mM KCl, 1 mM MgCl2; details: label: 32P; G4 motif, CD not determined
Method: as §1

[3] = molecular target: T1, Nucleolin (MBP fusion, lacking …); assay: filter; Bmax 66%; 60 mM KCl, 1 mM MgCl2; details: label: 32P; G4 mixed
Method: as §1

[4] = molecular target: T1, Nucleolin (MBP fusion, lacking …); assay: filter; Bmax 16%; 60 mM KCl, 1 mM MgCl2; details: label: 32P; G4 motif, CD not determined
Method: as §1

[5] = molecular target: T1, Nucleolin (MBP fusion, lacking …); assay: filter; Bmax 26%; 60 mM KCl, 1 mM MgCl2; details: label: 32P; G4 mixed
Method: as §1

[6] = molecular target: T1, Nucleolin (MBP fusion, lacking …); assay: filter; 60 mM KCl, 1 mM MgCl2; details: label: 32P
Method: The assay also was conducted in a filter-binding format. In such forms of the assay, 0.2 nM of ³²P-labeled quadruplexes were incubated in 50 uL of the binding buffer (12.5 mM Tris-HCl, pH 7.6, 60 mM KCl, 1 mM MgCl2, 0.1 mM EDTA, 5% glycerol, 0.1 mg/mL BSA) for 10 min at 85 C and then for 10 min on ice and mixed with another 50 uL of binding buffer containing increasing amounts of recombinant protein Nucleolin. The protein-quadruplex mixtures were incubated for 30 min at ambient temperature and filtered through mixed cellulose ester membrane filters (Millipore) with gentle suction. The filters were washed twice with […] of binding buffer, dried and OptiPhase ‘SuperMix’ scintillation cocktail (Perkin Elmer) was added to the wells. Radioactivity was assayed with MicroBeta scintillation counter (Perkin Elmer). Binding curves were constructed and apparent Kd's and Bmax's for the complexes were calculated using the GraphPad Prizm software program (GraphPad Software). In the following table, the nucleic acid ligand is designated in the first column using the nomenclature described herein; the second column provides the nucleotide sequence of the nucleic acid ligand; the third column is the conformation of the ligand as determined by circular dichroism (M is mixed, P is parallel, A is antiparallel, C is complex, SS is single-stranded and ND is not determined); the fourth column is the dissociation constant determined by the filter binding assay of nucleolin protein and the nucleic acid ligand; the fifth column is a Bmax constant determined by the filter binding assay, which is the percent of active nucleic acid ligand in each assay; and the sixth column presents the concentration of Compound A-1 required to dissociate half of the complexed nucleic acid ligand and nucleolin protein, as determined by the EMSA assay described above.

[7] = molecular target: T1, Nucleolin (MBP fusion, lacking …); assay: filter; Bmax 37%; 60 mM KCl, 1 mM MgCl2; details: label: 32P; G4 parallel
Method: as §1

[8] = molecular target: T1, Nucleolin (MBP fusion, lacking …); assay: filter; Bmax 33%; 60 mM KCl, 1 mM MgCl2; details: label: 32P; G4 parallel
Method: as §1

[9] = molecular target: T1, Nucleolin (MBP fusion, lacking …); assay: filter; Bmax 50%; 60 mM KCl, 1 mM MgCl2; details: label: 32P
Method: as §1

[10] = molecular target: T1, Nucleolin (MBP fusion, lacking …); assay: filter; Bmax 84%; 60 mM KCl, 1 mM MgCl2; details: label: 32P; G4 mixed
Method: as §1

[11] = molecular target: T1, Nucleolin (MBP fusion, lacking …); assay: filter; Bmax 82%; 60 mM KCl, 1 mM MgCl2; details: label: 32P; G4 motif, CD not determined
Method: as §1

[12] = molecular target: T1, Nucleolin (MBP fusion, lacking …); assay: filter; Bmax 21%; 60 mM KCl, 1 mM MgCl2; details: label: 32P; G4 motif, CD not determined
Method: as §1

[13] = molecular target: T1, Nucleolin (MBP fusion, lacking …); assay: filter; Bmax 32%; 60 mM KCl, 1 mM MgCl2; details: label: 32P
Method: as §1

[14] = molecular target: T1, Nucleolin (MBP fusion, lacking …); assay: filter; Bmax 53%; 60 mM KCl, 1 mM MgCl2; details: label: 32P; G4 mixed
Method: as §1

[15] = molecular target: T1, Nucleolin (MBP fusion, lacking …); assay: filter; Bmax 35%; 60 mM KCl, 1 mM MgCl2; details: label: 32P; G4 motif, CD not determined
Method: as §1

[16] = molecular target: T1, Nucleolin (MBP fusion, lacking …); assay: filter; Bmax 31%; 60 mM KCl, 1 mM MgCl2; details: label: 32P; G4 motif, CD not determined
Method: as §1

[17] = molecular target: T1, Nucleolin (MBP fusion, lacking …); assay: filter; Bmax 52%; 60 mM KCl, 1 mM MgCl2; details: label: 32P; G4 motif, CD not determined
Method: as §1

[18] = molecular target: T1, Nucleolin (MBP fusion, lacking …); assay: filter; apparent Kd; Bmax 41%; 12.5 mM Tris-HCl pH 7.6, 60 mM KCl, 1 mM MgCl2, ambient temperature; details: label: 32P; G4 mixed
Method: as §1

[19] = molecular target: T1, Nucleolin (MBP fusion, lacking …); assay: filter; Bmax 65%; 60 mM KCl, 1 mM MgCl2; details: label: 32P; G4 motif, CD not determined
Method: as §1

[20] = molecular target: T1, Nucleolin (MBP fusion, lacking …); assay: filter; Bmax 20%; 60 mM KCl, 1 mM MgCl2; details: label: 32P; G4 motif, CD not determined
Method: as §1

[21] = molecular target: T1, Nucleolin (MBP fusion, lacking …); assay: filter; Bmax 100%; sequence taken from Example 6 table; details: label: 32P; G4 complex
Method: as §1

[22] = molecular target: T1, Nucleolin (MBP fusion, lacking …); assay: filter; Bmax 55%; 60 mM KCl, 1 mM MgCl2; details: label: 32P; G4 motif, CD not determined
Method: as §1

[23] = molecular target: T1, Nucleolin (MBP fusion, lacking …); assay: filter; Bmax 43%; 60 mM KCl, 1 mM MgCl2; details: label: 32P; G4 motif, CD not determined
Method: as §1

T1 sequence (P19338 284-710, one chain of several): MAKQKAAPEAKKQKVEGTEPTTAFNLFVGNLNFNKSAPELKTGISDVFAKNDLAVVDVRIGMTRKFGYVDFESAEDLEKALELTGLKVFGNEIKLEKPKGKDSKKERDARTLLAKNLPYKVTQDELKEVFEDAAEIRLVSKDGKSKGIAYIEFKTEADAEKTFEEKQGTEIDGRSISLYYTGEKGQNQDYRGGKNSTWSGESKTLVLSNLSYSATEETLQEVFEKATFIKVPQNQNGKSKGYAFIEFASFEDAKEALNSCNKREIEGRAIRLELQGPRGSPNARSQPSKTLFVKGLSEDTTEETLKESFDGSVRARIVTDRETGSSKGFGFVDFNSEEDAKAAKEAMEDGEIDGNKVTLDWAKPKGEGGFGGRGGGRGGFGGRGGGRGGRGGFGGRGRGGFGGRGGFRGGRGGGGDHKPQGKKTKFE

Binder: GGGGGCGGGAACCCCCGGGCGCCTGTGGG (structured_DNA) [6374NT]
- Kd ([1]; G4 mixed): 5.5 nM

Binder: AGGGAGGACGCGGGGCCGGGGGGCGGAGACGGG (structured_DNA) [8716T]
- Kd [2]: 3.1 nM

Binder: GGGTCGGGGGGTGGGGCCCGGGCCGGGG (structured_DNA) [2957NT]
- Kd [3]: 2.7 nM

Binder: AGGGGCGGCGGGGAGGAGGAGGGGCGCGGGG (structured_DNA) [7370T]
- Kd [4]: 1.1 nM

Binder: GGGTCGGGGGCGGTGGTGGGCCCGCGGGGG (structured_DNA) [6183NT]
- Kd [5]: 2.2 nM

Binder: GGGCCGGGACGGGGTCCGGGG (structured_DNA) [13173NT]
- Kd ([6]; G4 mixed): > 30 nM

Binder: GGAGGAGGAGGA (structured_DNA) [GGA4]
- Kd ([6]; G4 parallel): > 30 nM

Binder: GGGGTGGGGGGGAGGG (structured_DNA) [13079NT]
- Kd [7]: 2.6 nM

Binder: TGGGGAGGGTGGGGAGGGTGGGGAATT (structured_DNA) [Myc27]
- Kd [8]: 4.4 nM

Binder: GGGCCCGCGGGGGGAGGGGGAAGGGGCGGG (structured_DNA) [6914T]
- Kd ([9]; G4 mixed): 0.8 nM

Binder: AGGGTTAGGGTTAGGGTTAGGG (structured_DNA) [hTel]
- Kd ([6]; G4 antiparallel): > 30 nM

Binder: AGGGAGGGAGACGGGGGGG (structured_DNA) [5701NT]
- Kd [10]: 3.2 nM

B1: 10885T (structured_DNA)
DNA: AGGGTGGGGCGGGGGAGGGCCGCGAGGGGGGTGCCCCGGGCGTGGGGGGGG
- Kd [11]: 0.2 nM

Binder: AGGGACCGGTGGGGCCGGGGCGGGG (structured_DNA) [3468T]
- Kd [12]: 2.4 nM

Binder: AGGGCGGGCGGCGGGGCGGG (structured_DNA) [7499T]
- Kd [4]: 1.1 nM

Binder: GGGGCGCGGCGGGGGGAGAAGGGTCGGGGCGGCAGGGG (structured_DNA) [11028NT]
- Kd ([13]; G4 mixed): 2.7 nM

Binder: GGGAGGGGCACGGGCCGGGGGCGGGACGGG (structured_DNA) [7733T]
- Kd [14]: 0.8 nM

Binder: AGGGGAGGGGGGAGGACGGGGAGCGGGGG (structured_DNA) [10985T]
- Kd [15]: 0.2 nM

Binder: AGGGACGCCTGGGGAAGGGAGGGGG (structured_DNA) [1310T]
- Kd ([9]; G4 motif, CD not determined): 4.4 nM

Binder: AGGGGGTGGGCGCCGGGAGGGGGG (structured_DNA) [8904T]
- Kd [16]: 0.4 nM

Binder: AGGGGACACCGGGGGGGCGCCGGGGG (structured_DNA) [11888T]
- Kd ([1]; G4 motif, CD not determined): 0.2 nM

Binder: AGGGCGCGGGGTGGGGAGGG (structured_DNA) [10951T]
- Kd [17]: 0.2 nM

Binder: GGGTGGACGGGGGGGCCTGGTGGGG (structured_DNA) [1196NT]
- Kd [18]: 4.2 nM

Binder: AGGGGGGAACGGGGGGCGGACGGGGCCGGGGGGGTAGGGCGGGGGG (structured_DNA) [11345T]
- Kd ([13]; G4 motif, CD not determined): 0.3 nM

Binder: AGGGGCTCCGGGGGCGGGGAGCGGGGCGTGGGCGGGAGGAGGGG (structured_DNA) [10137T]
- Kd [19]: 0.4 nM

Binder: AGGGCGGACGGGAGGGAGCGAGCGGGCGCGGGGG (structured_DNA) [3500T]
- Kd [20]: 1.1 nM

B2: 8762NT (structured_DNA)
DNA: CGGAGGGCGCGCGGGTCGGGGCGGCGGCGGCGGCGGCGGTGGCGGCGGCGGCGGGGGCGGCGGG
- Kd [21]: 0.3 nM

B3: 8440T (structured_DNA)
DNA: AGGGGCGGCGGGGGAAGGGAGGGCGGGTGGAGGGGTCGGGAGGAACGGGGGGCGGG
- Kd [15]: 0.3 nM

B4: 2160T (structured_DNA)
DNA: AGGGCGGCGGGCGGGGAAGAGGGCACAGACGGGCGAGGGCCGGGGACCGCGAGGGCAAGGGCACCCGGG
- Kd [22]: 0.7 nM

Binder: AGGGGCGGGGGCGCGGGGAGGAGGGGTGGG (structured_DNA) [9024T]
- Kd [23]: 0.3 nM

Binder: AGGGACGGGGACCGGCGGGCCACGGGG (structured_DNA) [13236T]
- Kd ([6]; G4 motif, CD not determined): > 30 nM
